Our source for the Kd values is EP3854411A1 (Rise Biopharmaceuticals, Inc. (Beijing), dated 2021).

In one assay the target is T1, CXCR2 (UniProt P25025 1-360, limits assumed).
T1 construct: The receptor preparation used in the ELISA is not described; also called IL-8R
T1 sequence (looked up): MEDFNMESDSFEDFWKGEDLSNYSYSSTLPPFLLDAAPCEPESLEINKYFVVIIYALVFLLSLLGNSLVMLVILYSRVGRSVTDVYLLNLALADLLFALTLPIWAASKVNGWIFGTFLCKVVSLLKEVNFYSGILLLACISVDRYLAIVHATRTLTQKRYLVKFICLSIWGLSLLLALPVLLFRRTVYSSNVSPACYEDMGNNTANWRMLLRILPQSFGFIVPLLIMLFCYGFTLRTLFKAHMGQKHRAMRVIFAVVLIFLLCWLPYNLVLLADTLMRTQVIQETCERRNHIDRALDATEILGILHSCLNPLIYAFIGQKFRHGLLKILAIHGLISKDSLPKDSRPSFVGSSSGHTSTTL
The experiment in a line: indirect ELISA, ONCO P8-CXCR2 complex formation.

The target of a further assay is T2, CXCR1 (UniProt P25024 1-350, limits assumed).
T2 construct: The receptor preparation used in the ELISA is not described; also called IL-8R
T2 sequence (looked up): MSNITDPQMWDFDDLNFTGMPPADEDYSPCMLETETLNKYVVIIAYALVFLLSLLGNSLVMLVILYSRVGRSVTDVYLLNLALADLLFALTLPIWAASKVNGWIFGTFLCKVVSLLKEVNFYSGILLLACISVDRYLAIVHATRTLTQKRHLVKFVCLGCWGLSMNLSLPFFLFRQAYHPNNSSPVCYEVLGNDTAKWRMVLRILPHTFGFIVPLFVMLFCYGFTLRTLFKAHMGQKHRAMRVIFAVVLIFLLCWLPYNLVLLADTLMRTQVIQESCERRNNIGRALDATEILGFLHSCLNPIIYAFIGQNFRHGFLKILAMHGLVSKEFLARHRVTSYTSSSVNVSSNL
The experiment in a line: indirect ELISA, ONCO P8-CXCR1 complex formation.

B1: ONCO P-8 (peptide)
chain: GSKELRCQCIRSYSKPFHPKFIKELRVIPASQFCANTEIIVKLSDGRELCLDPKENWVQRVVEKFLKRAENS
notes: also called chemokine receptor antagonistic modified peptide
In the case of B1, the figures for the Kd with CXCR2 and with CXCR1 were 139 nM and 286 nM, respectively.
